How the values were obtained:
hGHQ141N = hGHQ141N (human, UniProt P01241 27-217); experiment: cell-based or functional assay
hGHQ40N = hGHQ40N (human, UniProt P01241 27-217); experiment: cell-based or functional assay
hGHQ40N, sequence (P01241 27-217 Q66N): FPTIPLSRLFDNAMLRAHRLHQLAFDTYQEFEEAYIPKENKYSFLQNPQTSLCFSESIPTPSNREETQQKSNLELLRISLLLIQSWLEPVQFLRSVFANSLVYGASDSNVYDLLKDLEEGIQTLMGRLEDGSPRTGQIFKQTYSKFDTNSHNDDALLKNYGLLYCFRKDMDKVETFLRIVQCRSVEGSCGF

hGHQ141N, sequence (P01241 27-217 Q167N): as the sequence (P01241 27-217 Q66N) above, with N40Q, Q141N counted along it

Binder	RSA Q40 (hGHQ141N)	RSA Q141 (hGHQ40N)
S. ladakanum GlyPro-TGase mutant S250M (enzyme) GPDSDERVTPPAEPLDRMPDPYRPSYGRAETIVNNYIRKWQQVYSHRDGRKQQMTEEQREWLSYGCVGVTWVNSGQYPTNRLAFAFFDEDKYKNELKNGRPRSGETRAEFEGRVAKDSFDEAKGFQRARDVASVMNKALENAHDEGAYLDNLKKELANGNDALRNEDARSPFYSALRNTPSFKDRNGGNHDPSKMKAVIYSKHFWSGQDRSGSSDKRKYGDPEAFRPDRGTGLVDMSRDRNIPRSPTSPGEMFVNFDYGWFGAQTEADADKTVWTHGNHYHAPNGSLGAMHVYESKFRNWSDGYSDFDRGAYVVTFVPKSWNTAPDKVKQGWP	2.22 relative to wild type TGase	3.25 relative to wild type TGase
S. ladakanum GlyPro-TGase mutant S250R (enzyme) GPDSDERVTPPAEPLDRMPDPYRPSYGRAETIVNNYIRKWQQVYSHRDGRKQQMTEEQREWLSYGCVGVTWVNSGQYPTNRLAFAFFDEDKYKNELKNGRPRSGETRAEFEGRVAKDSFDEAKGFQRARDVASVMNKALENAHDEGAYLDNLKKELANGNDALRNEDARSPFYSALRNTPSFKDRNGGNHDPSKMKAVIYSKHFWSGQDRSGSSDKRKYGDPEAFRPDRGTGLVDMSRDRNIPRSPTSPGERFVNFDYGWFGAQTEADADKTVWTHGNHYHAPNGSLGAMHVYESKFRNWSDGYSDFDRGAYVVTFVPKSWNTAPDKVKQGWP	0.59 relative to wild type TGase	0.83 relative to wild type TGase
S. ladakanum GlyPro-TGase mutant S250A (enzyme) GPDSDERVTPPAEPLDRMPDPYRPSYGRAETIVNNYIRKWQQVYSHRDGRKQQMTEEQREWLSYGCVGVTWVNSGQYPTNRLAFAFFDEDKYKNELKNGRPRSGETRAEFEGRVAKDSFDEAKGFQRARDVASVMNKALENAHDEGAYLDNLKKELANGNDALRNEDARSPFYSALRNTPSFKDRNGGNHDPSKMKAVIYSKHFWSGQDRSGSSDKRKYGDPEAFRPDRGTGLVDMSRDRNIPRSPTSPGEAFVNFDYGWFGAQTEADADKTVWTHGNHYHAPNGSLGAMHVYESKFRNWSDGYSDFDRGAYVVTFVPKSWNTAPDKVKQGWP	2.57 relative to wild type TGase	4.23 relative to wild type TGase
S. ladakanum GlyPro-TGase mutant S250Y (enzyme) GPDSDERVTPPAEPLDRMPDPYRPSYGRAETIVNNYIRKWQQVYSHRDGRKQQMTEEQREWLSYGCVGVTWVNSGQYPTNRLAFAFFDEDKYKNELKNGRPRSGETRAEFEGRVAKDSFDEAKGFQRARDVASVMNKALENAHDEGAYLDNLKKELANGNDALRNEDARSPFYSALRNTPSFKDRNGGNHDPSKMKAVIYSKHFWSGQDRSGSSDKRKYGDPEAFRPDRGTGLVDMSRDRNIPRSPTSPGEYFVNFDYGWFGAQTEADADKTVWTHGNHYHAPNGSLGAMHVYESKFRNWSDGYSDFDRGAYVVTFVPKSWNTAPDKVKQGWP	0.95 relative to wild type TGase	1.71 relative to wild type TGase
S. ladakanum GlyPro-TGase mutant Y75M (enzyme) GPDSDERVTPPAEPLDRMPDPYRPSYGRAETIVNNYIRKWQQVYSHRDGRKQQMTEEQREWLSYGCVGVTWVNSGQMPTNRLAFAFFDEDKYKNELKNGRPRSGETRAEFEGRVAKDSFDEAKGFQRARDVASVMNKALENAHDEGAYLDNLKKELANGNDALRNEDARSPFYSALRNTPSFKDRNGGNHDPSKMKAVIYSKHFWSGQDRSGSSDKRKYGDPEAFRPDRGTGLVDMSRDRNIPRSPTSPGESFVNFDYGWFGAQTEADADKTVWTHGNHYHAPNGSLGAMHVYESKFRNWSDGYSDFDRGAYVVTFVPKSWNTAPDKVKQGWP	0.1 relative to wild type TGase	0.18 relative to wild type TGase
S. ladakanum GlyPro-TGase mutant Y62L (enzyme) GPDSDERVTPPAEPLDRMPDPYRPSYGRAETIVNNYIRKWQQVYSHRDGRKQQMTEEQREWLSLGCVGVTWVNSGQYPTNRLAFAFFDEDKYKNELKNGRPRSGETRAEFEGRVAKDSFDEAKGFQRARDVASVMNKALENAHDEGAYLDNLKKELANGNDALRNEDARSPFYSALRNTPSFKDRNGGNHDPSKMKAVIYSKHFWSGQDRSGSSDKRKYGDPEAFRPDRGTGLVDMSRDRNIPRSPTSPGESFVNFDYGWFGAQTEADADKTVWTHGNHYHAPNGSLGAMHVYESKFRNWSDGYSDFDRGAYVVTFVPKSWNTAPDKVKQGWP	0.07 relative to wild type TGase	0.2 relative to wild type TGase
S. ladakanum GlyPro-TGase mutant S250Q (enzyme) GPDSDERVTPPAEPLDRMPDPYRPSYGRAETIVNNYIRKWQQVYSHRDGRKQQMTEEQREWLSYGCVGVTWVNSGQYPTNRLAFAFFDEDKYKNELKNGRPRSGETRAEFEGRVAKDSFDEAKGFQRARDVASVMNKALENAHDEGAYLDNLKKELANGNDALRNEDARSPFYSALRNTPSFKDRNGGNHDPSKMKAVIYSKHFWSGQDRSGSSDKRKYGDPEAFRPDRGTGLVDMSRDRNIPRSPTSPGEQFVNFDYGWFGAQTEADADKTVWTHGNHYHAPNGSLGAMHVYESKFRNWSDGYSDFDRGAYVVTFVPKSWNTAPDKVKQGWP	1.62 relative to wild type TGase	1.92 relative to wild type TGase
S. ladakanum GlyPro-TGase mutant Y62M (enzyme) GPDSDERVTPPAEPLDRMPDPYRPSYGRAETIVNNYIRKWQQVYSHRDGRKQQMTEEQREWLSMGCVGVTWVNSGQYPTNRLAFAFFDEDKYKNELKNGRPRSGETRAEFEGRVAKDSFDEAKGFQRARDVASVMNKALENAHDEGAYLDNLKKELANGNDALRNEDARSPFYSALRNTPSFKDRNGGNHDPSKMKAVIYSKHFWSGQDRSGSSDKRKYGDPEAFRPDRGTGLVDMSRDRNIPRSPTSPGESFVNFDYGWFGAQTEADADKTVWTHGNHYHAPNGSLGAMHVYESKFRNWSDGYSDFDRGAYVVTFVPKSWNTAPDKVKQGWP	0.1 relative to wild type TGase	0.28 relative to wild type TGase
S. ladakanum GlyPro-TGase mutant Y62N (enzyme) GPDSDERVTPPAEPLDRMPDPYRPSYGRAETIVNNYIRKWQQVYSHRDGRKQQMTEEQREWLSNGCVGVTWVNSGQYPTNRLAFAFFDEDKYKNELKNGRPRSGETRAEFEGRVAKDSFDEAKGFQRARDVASVMNKALENAHDEGAYLDNLKKELANGNDALRNEDARSPFYSALRNTPSFKDRNGGNHDPSKMKAVIYSKHFWSGQDRSGSSDKRKYGDPEAFRPDRGTGLVDMSRDRNIPRSPTSPGESFVNFDYGWFGAQTEADADKTVWTHGNHYHAPNGSLGAMHVYESKFRNWSDGYSDFDRGAYVVTFVPKSWNTAPDKVKQGWP	0.05 relative to wild type TGase	0.18 relative to wild type TGase
S. ladakanum GlyPro-TGase mutant Y75L (enzyme) GPDSDERVTPPAEPLDRMPDPYRPSYGRAETIVNNYIRKWQQVYSHRDGRKQQMTEEQREWLSYGCVGVTWVNSGQLPTNRLAFAFFDEDKYKNELKNGRPRSGETRAEFEGRVAKDSFDEAKGFQRARDVASVMNKALENAHDEGAYLDNLKKELANGNDALRNEDARSPFYSALRNTPSFKDRNGGNHDPSKMKAVIYSKHFWSGQDRSGSSDKRKYGDPEAFRPDRGTGLVDMSRDRNIPRSPTSPGESFVNFDYGWFGAQTEADADKTVWTHGNHYHAPNGSLGAMHVYESKFRNWSDGYSDFDRGAYVVTFVPKSWNTAPDKVKQGWP	0.06 relative to wild type TGase	0.18 relative to wild type TGase
S. ladakanum GlyPro-TGase mutant Y62T (enzyme) GPDSDERVTPPAEPLDRMPDPYRPSYGRAETIVNNYIRKWQQVYSHRDGRKQQMTEEQREWLSTGCVGVTWVNSGQYPTNRLAFAFFDEDKYKNELKNGRPRSGETRAEFEGRVAKDSFDEAKGFQRARDVASVMNKALENAHDEGAYLDNLKKELANGNDALRNEDARSPFYSALRNTPSFKDRNGGNHDPSKMKAVIYSKHFWSGQDRSGSSDKRKYGDPEAFRPDRGTGLVDMSRDRNIPRSPTSPGESFVNFDYGWFGAQTEADADKTVWTHGNHYHAPNGSLGAMHVYESKFRNWSDGYSDFDRGAYVVTFVPKSWNTAPDKVKQGWP	0.1 relative to wild type TGase	0.19 relative to wild type TGase
S. ladakanum GlyPro-TGase mutant S250W (enzyme) GPDSDERVTPPAEPLDRMPDPYRPSYGRAETIVNNYIRKWQQVYSHRDGRKQQMTEEQREWLSYGCVGVTWVNSGQYPTNRLAFAFFDEDKYKNELKNGRPRSGETRAEFEGRVAKDSFDEAKGFQRARDVASVMNKALENAHDEGAYLDNLKKELANGNDALRNEDARSPFYSALRNTPSFKDRNGGNHDPSKMKAVIYSKHFWSGQDRSGSSDKRKYGDPEAFRPDRGTGLVDMSRDRNIPRSPTSPGEWFVNFDYGWFGAQTEADADKTVWTHGNHYHAPNGSLGAMHVYESKFRNWSDGYSDFDRGAYVVTFVPKSWNTAPDKVKQGWP	1.3 relative to wild type TGase	2.43 relative to wild type TGase
S. ladakanum GlyPro-TGase mutant S250P (enzyme) GPDSDERVTPPAEPLDRMPDPYRPSYGRAETIVNNYIRKWQQVYSHRDGRKQQMTEEQREWLSYGCVGVTWVNSGQYPTNRLAFAFFDEDKYKNELKNGRPRSGETRAEFEGRVAKDSFDEAKGFQRARDVASVMNKALENAHDEGAYLDNLKKELANGNDALRNEDARSPFYSALRNTPSFKDRNGGNHDPSKMKAVIYSKHFWSGQDRSGSSDKRKYGDPEAFRPDRGTGLVDMSRDRNIPRSPTSPGEPFVNFDYGWFGAQTEADADKTVWTHGNHYHAPNGSLGAMHVYESKFRNWSDGYSDFDRGAYVVTFVPKSWNTAPDKVKQGWP	1.86 relative to wild type TGase	3.99 relative to wild type TGase
S. ladakanum GlyPro-TGase mutant S250V (enzyme) GPDSDERVTPPAEPLDRMPDPYRPSYGRAETIVNNYIRKWQQVYSHRDGRKQQMTEEQREWLSYGCVGVTWVNSGQYPTNRLAFAFFDEDKYKNELKNGRPRSGETRAEFEGRVAKDSFDEAKGFQRARDVASVMNKALENAHDEGAYLDNLKKELANGNDALRNEDARSPFYSALRNTPSFKDRNGGNHDPSKMKAVIYSKHFWSGQDRSGSSDKRKYGDPEAFRPDRGTGLVDMSRDRNIPRSPTSPGEVFVNFDYGWFGAQTEADADKTVWTHGNHYHAPNGSLGAMHVYESKFRNWSDGYSDFDRGAYVVTFVPKSWNTAPDKVKQGWP	0.51 relative to wild type TGase	0.96 relative to wild type TGase
S. ladakanum GlyPro-TGase mutant Y75C (enzyme) GPDSDERVTPPAEPLDRMPDPYRPSYGRAETIVNNYIRKWQQVYSHRDGRKQQMTEEQREWLSYGCVGVTWVNSGQCPTNRLAFAFFDEDKYKNELKNGRPRSGETRAEFEGRVAKDSFDEAKGFQRARDVASVMNKALENAHDEGAYLDNLKKELANGNDALRNEDARSPFYSALRNTPSFKDRNGGNHDPSKMKAVIYSKHFWSGQDRSGSSDKRKYGDPEAFRPDRGTGLVDMSRDRNIPRSPTSPGESFVNFDYGWFGAQTEADADKTVWTHGNHYHAPNGSLGAMHVYESKFRNWSDGYSDFDRGAYVVTFVPKSWNTAPDKVKQGWP	0.06 relative to wild type TGase	0.18 relative to wild type TGase

From US20100099610A1 (published 2010)
